Data from patent publication US20230121248A1.

How the values were obtained:
Test in all cases: cell-based or functional assay
[1] = biological target: anti-CD19 chimeric antigen receptor on anti-CD19 CAR-T cells
[2] = biological target: mock CAR-T cells (CAR-T not able to recognize CD19)
[3] = biological target: native JAM-A on CAL27 cells (UniProt Q9Y624)
Chain of UniProt Q9Y624 (Q9Y624 28-299 limits assumed): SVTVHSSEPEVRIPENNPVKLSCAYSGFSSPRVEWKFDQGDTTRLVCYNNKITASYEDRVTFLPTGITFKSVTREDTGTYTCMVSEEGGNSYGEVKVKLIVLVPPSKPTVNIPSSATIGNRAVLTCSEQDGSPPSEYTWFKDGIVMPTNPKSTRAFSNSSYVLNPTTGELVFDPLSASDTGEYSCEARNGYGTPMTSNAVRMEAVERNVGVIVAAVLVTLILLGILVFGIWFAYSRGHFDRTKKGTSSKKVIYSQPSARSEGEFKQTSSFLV

Substance	proliferation (ATP fold of control) of A549 cells 72 h after the anti-CD19 CAR-T killing assay, 1 uM CM19XA [1]	proliferation (ATP fold of control) of CAL27 cells 72 h after the anti-CD19 CAR-T killing assay, 1 uM CM19XA [1]	proliferation (ATP fold of control) of A549 cells 72 h after the mock CAR-T killing assay, 1 uM CM19XA [2]	proliferation (ATP fold of control) of CAL27 cells 72 h after the mock CAR-T killing assay, 1 uM CM19XA [2]	proliferation of CAL27 cells (ATPlite, ratio to untreated control), 1 uM soluble JAM-A [3]
CM19XA (CD19-GS linker-JAM-A-pHLIP fusion protein with N-terminal 6xHis tag)	0.74 fold	0.72 fold	1.03 fold	1.01 fold	
soluble JAM-A protein (extracellular domain of JAM-A fused with MBP) (from UniProt Q9Y624 28-238)					1.24
